Data from patent US20120184488A1, “INSULIN ANALOGUES OF ENHANCED RECEPTOR-BINDING SPECIFICITY” (CASE WESTERN RESERVE UNIVERSITY, priority 2009, published 2012).
Each block holds one substance with its values, some of them ahead of it.

Assays:
[1] = biological target: insulin receptor, isoform B (human) (UniProt P06213); assay: competitive displacement, antibody-capture microtiter plate, IR isoform B
[2] = biological target: insulin receptor, isoform B (human) (UniProt P06213); assay: competitive displacement of 125I-insulin, antibody-capture microtiter plate, IR isoform B
[3] = biological target: Type I insulin-like growth factor receptor (UniProt P08069); assay: competitive displacement of 125I-IGF-1, antibody-capture microtiter plate, IGFR
[4] = biological target: IR (Homo sapiens, UniProt P06213); conditions: relative to human insulin; cited from earlier work

Chain of His^A4-His^A8-His^B1-insulin (ligand) (chain): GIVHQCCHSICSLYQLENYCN
Chain of His^A4-His^A8-His^B1-insulin (ligand) (chain): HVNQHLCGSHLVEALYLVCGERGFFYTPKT
Chain of Ala^A4-His^A8-DKP-insulin (ligand) (chain): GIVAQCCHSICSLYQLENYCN
Chain of Ala^A4-His^A8-DKP-insulin (ligand) (chain): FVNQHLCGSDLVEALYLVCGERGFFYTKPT

relative affinity for IR (percent of human insulin) [1]: 384%
Substance: Ala^A4-His^A8-DKP-insulin (ligand)

relative affinity for IR (percent of human insulin) [2]: 91% | relative affinity for IGFR (percent of IGF-I) [3]: 0.13%
Substance: Dab^A8-insulin (ligand)

relative affinity for IR (percent of human insulin) [1]: 125%
Substance: His^A4-His^A8-His^B1-insulin (ligand)

Substance: insulin Detemir®
affinity for IR / receptor binding [4]: decreased affinity
